This data set in a line: protease stability score; higher = more stable; yeast display proteolysis, trypsin and chymotrypsin.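 Further: log10 excess protease needed over predicted unfolded state with 0 meaning unfolded.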

Take “DEKVLKALHDVFRAQEHGDERRAMRNLDPNVKIDVGDEQYHGRESWARRIVQERRDMKVEYHKIDFDDRGDKAKITARYEFTENGDPRHVTIDMEAKATNGKVTTMEQRDDG”: the protease stability score was -0.103.

Sequence “DEKVQDLVQKFVKWLAQGDHKKLADLLDPNARLHIGEFNVHGREQLREAVTRLQTRMHLSVNRVDASASNGKIKASAKFTVKHNGQPDKKHLNFSAVARGEKVKHMEASDDQ” showed a protease stability score of -0.287.

Turning to “DENAERVLREIVKALEQGDPDRWKQNVDPNVKFRVGDKDVHGREEIVKTLSSLHDQIRFHVKFEHMDNQGDKIRADARVHQNVDGRPLSSSVVVRLTVHNGRVQEMRMNMDEHYVRDEQK”, the protease stability score turned out to be 0.068.

On to “DENAQKLAREFMHAVREGNPEEIKKQVDPNAKMVVGDKEITGREEMSRQRERELREIEIDYRSVRVDVSGDKAKLDIKFERNDNGKPQQQQQTMTFVHQGDKIKHLVIKQHS”, for which the protease stability score is -0.373.

Consider “DENAVRVVKELWKALNHGNPDRVQQLADKDARVQVGDKDVHGREKMAKLVDTLKKEIRMDIKVHSISASNGRAKIDFKADEENNGKPQTYEATANVTIHNGKVVSMRVNKDQ”, for which the protease stability score was -0.428.

The sequence “DENDAKELRHFIEVMVRGDPSKLMQLADKDASFHIGEKQVHGREQISSEAEQRNREIKYEIKDLKVTVHGDKARVEAEMVKNHNGKPEHYRYVVTASLRNGKIKEVTVNKRQ” had a protease stability score of 0.875.

For the sequence “DENDTARKIIKTLLDIMREGDEDKLRDQMDPNVRADVGDKTVHGREHAAKFLAHIVKRADHISITLKSLHNHNGRLRMQAEVRIVHNGRTERVTLEMVFRDHNGKLLIERMKYG”, the protease stability score is 2.51.

Take “DENDVKRVLDKLKDNNWEDLVKLMDKDARVEIGDHTIHGRENVHQWMSTIEKQVDHFQIDTMTVKGDTLDANVRMVVNGRKIVFRLKVSLKNGRITRIRFQATDEEQHQQIRQMLR”: the protease stability score came to 1.29.

Consider “DENELELYKEVVEAENTGDPDEMKELVDPNVNVQVGDTTLHGMSELVKDAKRRRKQMRVDIKVTSMKAHNGRLEIRLEVVFEVNGRPTSDTITVTVHAHNGKVKEFNYHMDPDREKRQRS”, for which the protease stability score stood at 1.03.

As for “DENELLKTFMDIFRRAIKTGDEKLLRTMMDKDVKARVGDKDVHGREEADKEFKKIWDHADHVDIKVKEVTINGDKAHVTMDAKFVVDGKSQKVNIHVKAEVKNGRLKAKHITMG”, the protease stability score was found to be 2.03.

On to “DENEMVQLARKLARVLETNDSDKMREMIPPDASIEIGDRRLHGRESVEHLMKDMHKRIDHLTVDSVNVDNGRVHISARAKHNGRTRRVQFYALIHNGRIHVISFRTK”, for which the protease stability score worked out at 1.34.

For “DENENEEFARKFLENLRTGDPDKVMELVDPNAHVTIGDKEIKGRDQVKRWVEEHKRRADHLDVRDMSVDGEKITARIVVNINGENKYQKVEISIHNGHMTHMSVHDE”, the protease stability score amounted to 1.12.

“DENETAKDILKELVDILKNGDEDSFARMFDENARITVGDKTYTGRDEVRKYASQIHRRVDHIDVKLKSVTTNNGRIEVSARFVFQVDGKEDDRIFRLVVRKKGDKWVIERQSLE” came in with a protease stability score of 1.64.

For the sequence “DENHKVRELVDRFKEAYDSNDPDQYQNQFDKDATVTVGDKVFHGDEQAKQMAEDIMRNVDSFSISLKRVRVRGDKVRVSFKVVNNRNGRHKTIHVTAVFVFDNGRLRAKSWHFQ”, the protease stability score came to 0.73.

For “DENHLKEVAEEYNKVLNNGDPDKHVEQVDKDVDVKVGDKTYHGREDDKKWMEHFVERVDHLEVKRVEVRGDKVRIDMVVNVNGDNVKMQVNINLHNGRVQEVSVNPDQLEKFKQ”, the protease stability score was determined as 0.22.

Regarding “DENIKRTMSDFLHAVRDGDEDKLFKLADPNARMKYGDKDVHGMEEIVHQIKRLRRDASVDIHIKRVEVDGNRVDIKLEVVVNVNGRPQRYRFEIKVRFHNGRINALENNIDEDQLRKIES”, the protease stability score amounted to 1.21.

As for “DENKEAKHFAQDINDAFQHNDPDHLNRLFDPNARMQIGDKEIRGKEQFKEENRRMVDQVDKVEVHVKEISVHNGRVEFVLIIRENHNGRNTQTSVEVNAEKQNGQIRIRQETEQ”, the protease stability score was -0.307.

Sequence “DENKENEQFLRNYSKQLKDGNEEQLKRNFDPDAKVRYGDKDVSGREQIQKRIADEARKVDHYEITVKRVEKRGDHVRVEFDVRRHVNGKEESMDVVVIFVKHNGRMVISTVTID” returned a protease stability score of 0.036.

“DENKKAEKVARDYIKNAQTNNSESLKKLADPNVEVVIGDTTYTGTKDFVKFVQEIVRQADHISLNVRSVEVQGDKADVVAEVRVDFNGNQRRQDIRFHAQLQGDKVKLKMIQYK” returned a protease stability score of 1.06.

“DENKLKEVANRIVSAVRTNDPDHLANLFDKDDKFQIGEKQFHGHEELRKALEEIHQEVDRLHVKTYELHNGVVKIHVDMKYNGHEIKVVFYFTVHNGRLKYMEVKSQ” registered a protease stability score of -0.346.

In turn, “DENLERQASRLISALLDNDPDLAVELVDENVKVQIGDKTVHGRETVHRHIETLVHHMRMDLDRFHVEVSGEKAKITLDVRFKINGKPIKDTLDVFFTAHNGKIKSVHFRMPEEHKKQVDR” displayed a protease stability score of 0.899.

The sequence “DENLLDHMKRLFESGDWDDFSKNADKHVRVHIGEFNYRGREQARTVMNKLQKSADHVEIKRISVHNGQLQMDVTVVVNGETITVRIAAHVSNGRFVELRMSATDSKDKKALQKVQS” returned a protease stability score of 1.03.

Turning to “DENLNTLMTQFMRAIQRGDEKRAKQLADPNAEIKYGDRSIHGMDQHADTIRKIRRKMRVDVTEVSHTTDGEQVNVEVTAIFNHNGEPKKRKFQFSATISNGRIKQVEVQDSQ”, the protease stability score was 0.654.

As to “DENQVDQLKELMDALQNNDERKANDLADKNARIRIGDKDVSGRSDMNRMVRELHERIRFTIRTVELHHQGDKVIAKVKVEMDHNGKPNDVTQNAEAKYHNGHLQRLFFDTRS”, the protease stability score is -0.433.

Sequence “DENREASTFMEQLQRNLRDGDHEEVVRMIDENARLEVGDKRIEGDHNVAHELMNQARRVDHFKMNITHLEVSNGRVKVVFIAKYEVNGRTEVNVYEQVLEIENGRLSLVSRRRK” had a protease stability score of 0.545.

For the sequence “DENRLRHLAHHMVEVLKTGNEEEIERLMDENVRLTYGDKEVHGRENVRQYIRQLREEIDHFSVQEIDVSGDKVTIVFTFIVNGQRVRAVLKVRFHNGRIVEATIEYTDEDQKRRADS”, the protease stability score came out at 1.35.

“DENTEAQRFADNFNKLMNTGDEDTLNKLFDENAKVEVGDHRLHGREKLTKLAETNKQRFDHVKVDVDDIKVDNGTVQMRAVVIVYHNGRHHSVELEVVAQNHNGHARVKRMRVG” returned a protease stability score of 0.553.

Sequence “DENTQKQIAKKVVDVIRNGDPKQLHDLFDPNARLNIGDRTYTGSKEFQKHAETLRRNVDHIQVKSIDVQGEHIHINMVLNVNGKQYNANFRVDVHNGKAKQMSVEYRDKEEYKTLKR” gave a protease stability score of 0.362.

“DENVLKRVKELLRTNNWEELANKADKDVEMRVGDKEWRGREQVVRAHKKLYDRVDHFKIDSMHWRNGHLVVNFVAEVNGKRAVMVLEMKVHNGRIKRITLEARDKDDEEFIEEALR” displayed a protease stability score of 1.47.

The sequence “DENVRRLVEHLIRAVQSNDPDKVVENLDPNASIHVGEKRYHGEDRAKDMYETEKNQMRVQVRLTQLHVQGNHAKLRETVLIDHNGRPVNVSLDMSLIAHNGRVHEIHETVPEENRKERKG” gave a protease stability score of -0.029.

Take “DENVVKEVEKLLEWIQSGNEQHIQEMMDKHARAQVGDQKVKGRKQVSTQWRRLAEDIDIHARVKDMKNDGNRAILEIHQVRHHNGDPDEFHANQIVTMHGDRIKHLELQNTK”: the protease stability score is -0.283.

As to “DENVVKRVHDALQTNDWQQLADLFDKDARVHVGEFQLHGHEEVQKFVDLQRKQIDHMEVRSIEIDGERAEAEFVIRVDGRKREAEITIRANNGKAKEMKIQFTDKDFERKMREKME”, the protease stability score was 0.836.

Consider “DENVVKTAKNWFKAVQTGDTQEIHKNADPNARFQIGDKEYEGMEEYDKEQKERFEHMRVDYKDVTIRADGEHLHVKVKAKVNVNGQPHDVTFTIEARVDNGKFKEIVVKFDPDQQDRVEK”, for which the protease stability score came to 0.338.

Consider “DEQAKEHIEEWMKAVKTGDEHTLREMADENAHFEIGDKTLHGMREFVKEQAERFRNIRVSYKRIDIRVQGNKVTVVVRFVVQHDGRPDERTVTFVFTFHNGQIENMQVKDEQ”, for which the protease stability score came to 1.17.

“DEQAKEVAEHWWEAVKKNDPTQAKENADKDVRARVGDQEIHGREDLATWLDQQKREMRIDLQIDSVSVSNGTLDIKAKMQVEDNGTPEHNTVEASMVVHNGRVKQFHIRVTK”: the protease stability score turned out to be 0.96.

Take “DEQAMSVAEELISALNTGNEDQVDRLMDPNAHLQVGDKRLHGREEVRRHVKTLKDQARFDMKVDSLRVQGEKVRLDATYTFEVNGRPREDRVIIDMTLTNGTVKRIRFNFDPDDWRKMEG”: the protease stability score was determined as 1.04.

Sequence “DEQAQKRAKNFMTAIQSNDPQKVKENVDKDVNIRIGDRIVHGREQLEDYYSHWNTKMRQRVSFKRMDVQGNHVDLKAEASNTNNGQPNHFEVRITITFHNGKIEKANLEFQP” showed a protease stability score of -0.422.

For “DEQATEVIERFLTALQRNDPHELKKQLDEDVRMNVGDKTLHGRDSFEKTWHEKLRTQRIELKDYRIEVQPGRVKAHVHYVVEHNGRPRTKRHTFSAEVHNGHVKHFHQQDEQ”, the protease stability score was -0.462.

In turn, “DEQAVNEVEKMWRAIHDGDPERINKMFDPNAKFHIGNKELHGRENFATTMVKEQREIRRRVDIIRMSAHNGRITVRYRVDAEVNGEPYSNDITVSATVHNGKATDFTVHVDEDYLRKFNS” returned a protease stability score of -0.004.

Consider “DEQDDAHKAKEFLEAVVTGNEERLRRMVDPNARIHYGDQEYHGREKIVDLMIRWRERVDHFTIDRVHSHNGRVQMDAFFTHNGRTKRFVARVVVHNGKVKSIEYTDG”, for which the protease stability score turned out to be 0.017.

As to “DEQDEVKTLLDEIRKALETNDRERLRELVDKDAHFEYGDKKYQGSEHAARQMVEEQKNIDSQSVQLRDVQIHNGQANVDVVIEYTHNGRKRTFDAKFRFKVENGRVKLVENVQS”, the protease stability score turned out to be 0.895.

“DEQDLKKVREFVQAQEEGDEDKLRELMDPNARVRVGDHRINGMDEIVKTDKKEVDDIKLSITDLKMHVKGDHMKVRIHQIVNHNGRPHTKTVDVVAHRHNGRLKSMERQDTK” displayed a protease stability score of -0.122.

Consider “DEQDLNSVKENLKAIETNNPKRVKELLDKDARAQYGDKEVHGRDEIADQQRKEREDIDIRIDWKRMNIDNGRIHMEFEVQYNFNGKPLTNKVTMRNEAHNGSIKAMFWQLSEDQQRELDS”, for which the protease stability score was -0.374.

“DEQDNEKARRIMDRGDPHELNRMADKDARVQVGDKTWHGRSQFEEFVKRFHDRVDHIEVKSVHVHGNEVRVDLVVVVNGHEARFIMVASVHNGHATSLSINVTDPRVEEVLRDIFD” registered a protease stability score of 0.014.

In the case of “DEQDQAKKFNDEVRKIFETGNFRQFARLLDKNVTAEVGDQEVHGKEQAHKWAEDVWRTFDHIHYNMVDVDVENGRVEVHVQLTYDHNGTTERRTYVMELKLSNGRLKIVHMKQG”, the protease stability score was found to be 0.809.

“DEQDQARKNVKTLANAIEDNDENQVHRLMDPNARLRIGDKDYHGREEAAHAMREIRETFDHIRIQVTRVRVEGDKINLIAKVNRNHNGRNEESEVDIQFVQDNGRARIVRLVDR” had a protease stability score of 0.554.

As for “DEQDQARRIVRHLLSAIRNNDPHRFQNNVDENVTLQYGDKTYNGDEDVHKYIEQFKREQKNARLRLLRLRIDNGRIDVIVRLRADHNGKEIRQIIVFHLVVRNGQARVETAHEG”, the protease stability score came to 1.17.

For the origin of these results see the NTF2 design screens of Basanta et al. (2020).
